Results from patent publication US20230235054A1 (BIOATLA, published 2023).
Where a chain is given by its changes, count along the chain named.

B1: BAP-143-wildtype (antibody, V domains shown)
VH: EVQLVESGGGLVQPGGSLRLSCAASGFTFSSYNMNWVRQAPGKGLEWVSYISSSSSTIYYADSVKGRFTISRDNAKNSLSLQMNSLRDEDTAVYYCARAYYYGMDVWGQGTTVTVSS
VL: DIQMTQSPSSVSASVGDRVTITCRASQGISGWLAWYQQKPGKAPKFLIYAASTLQSGVPSRFSGSGSGTDFTLTISSLQPEDFATYYCQQANSFPPTFGGGTKVEIK
notes: 150 kDa used in SPR; also called BAP143-00-00; benchmark (BM)
B2: BAP-143-00-01 (antibody, V domains shown)
VH: B1 VH
VL: B1 VL with L33E
notes: Used as a conjugate with a linker payload (CAB ADC)
B3: BAP-143-07-03-12 (antibody, V domains shown)
VH: B1 VH with V106K
VL: B1 VL with L33E
notes: as for B2
B4: BAP-143-06-33-03 (antibody, V domains shown)
VH: QVQLVQSGAEVKKPGASVKVSCKASGFTFSSYNMNWVRQARGQRLEWIGYISSSSSTIYYADSVKGRFTISRDNSKNTLYLQMNSLRAEDTAVYYCARAYYYGMDKWGQGTLVTVSS
VL: B1 VL with F94E
notes: as for B2
B5: BAP-143-06-24-16 (antibody, V domains shown)
VH: EVQLVQSGAEVKKPGATVKISCKVSGFTFSSYNMNWIRQSPSRGLEWLGYISSSSSTIYYADSVKGRFTISRDNSKNTLYLQMNSLRAEDTAVYYCARAYYYGDDVWGQGTLVTVSS
VL: B1 VL with R24H
notes: as for B2
B6: BAP-143-06-33-16 (antibody, V domains shown)
VH: B5 VH
VL: B1 VL with L33E
notes: as for B2

What was measured:
huNectin4-His = molecular target: T1, huNectin4-His (human, UniProt Q96NY8 32-349); experiment: SPR, huNectin4-His immobilized, pH 6.5
T1 construct: Immobilized on the SPR chip; also called humanNectin4; human Nectin4; not shown: His tag
T1 sequence (looked up): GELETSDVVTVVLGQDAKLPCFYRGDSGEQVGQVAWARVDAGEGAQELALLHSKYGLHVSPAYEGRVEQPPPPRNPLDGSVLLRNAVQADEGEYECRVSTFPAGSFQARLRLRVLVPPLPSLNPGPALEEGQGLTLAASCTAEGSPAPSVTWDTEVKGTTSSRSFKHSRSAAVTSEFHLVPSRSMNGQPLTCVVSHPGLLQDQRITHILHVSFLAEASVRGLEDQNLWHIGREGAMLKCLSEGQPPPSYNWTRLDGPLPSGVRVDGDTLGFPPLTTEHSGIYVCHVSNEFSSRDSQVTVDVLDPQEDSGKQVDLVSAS
Procedure: (§1) Binding kinetics of anti-Nectin4 antibodies were measured by surface plasmon resonance using a SPR2/4 instrument (Sierra Sensors, Hamburg, Germany) and flat amine sensor chips. The SPR sensor contained four flow cells (FC1-FC4), each of which was addressed individually or in groups. huNectin4-His was immobilized in FC2, and cynoNectin4-mFc in FC4. No protein was immobilized in FC1 and FC3 which were used as control surfaces for FC2 and FC4, respectively.
(§2) All injections were done at a flow rate of 25 μL/min at 25° C. The sensor surface was activated with 1-ethyl-3-(3-dimethylaminopropyl)-carbodiimide (EDC) and N-hydroxysuccinimide (NHS) (200 mM/50 mM) for 480 seconds. HuNectin4-His (2 μg/mL in 10 mM NaAc, pH4.5) was injected for 480s and the surface was inactivated by injecting 1M ethanolamine-HCl for 480s. CynoNectin4 was immobilized using the same conditions as described for huNectin4-His, except that the cynoNectin4 was diluted into 10 mM NaAc buffer having pH 5.0. The control surface was activated and deactivated using the same conditions, but without injecting protein. PBST buffer (PBS pH 7.4 with 0.05% TWEEN20™) was used as running buffer for the surface preparation. The running solution was switched to PBST with 30 mM sodium bicarbonate with the pH adjusted as indicated in the figures before the analyte injections. The instrument was equilibrated with the running solution for one hour before the first analyte injection.
(§3) The off-rate was measured for 360s. The chip surface was regenerated after each cycle of interaction analysis by injecting 6 μL of 10 mM glycine (pH 2.0). Flow cells 1 and 3 without immobilized protein were used as control surfaces for reference subtraction.

cynoNectin4-mFc [1] = molecular target: T2, cynoNectin4-mFc (cyno, UniProt A0A2K5WES1 32-349); experiment: SPR, cynoNectin4-mFc immobilized, pH 7.4
T2 construct: Immobilized on the SPR chip; also called cyanoNectin4; not shown: mFc (mouse Fc)
T2 sequence: T1 sequence (looked up) with V39A, I230V
Procedure: as §1, §2, §3

cynoNectin4-mFc [2] = molecular target: T2, cynoNectin4-mFc; experiment: SPR, cynoNectin4-mFc immobilized, pH 6.0
Procedure: as §1, §2, §3

[3] = molecular target: T3, recombinant human Nectin4 antigen (human, UniProt Q96NY8 32-349); experiment: ELISA, coated antigen, PSB pH 6.0
T3 construct: construct not described
T3 sequence (looked up): T1 sequence (looked up)
Procedure: (§4) 1) Coat ELISA plates with 100 μL of 1 μg/mL recombinant human Nectin4 antigen or cynoNectin4 antigen in carbonate-bicarbonate coating buffer. […] 2) Cover plates with sealing film and incubate overnight at 4° C. [0444] 3) Decant plates and tap out residual liquid on a stack of paper towels. [0445] 4) Wash wells twice by dispensing 200 μL of pH 6.0 or pH 7.4 ELISA incubation buffer to the wells and completely aspirate the contents. [0446] 5) Add 200 μL of pH 6.0 or pH 7.4 ELISA incubation buffer to the wells. Cover with sealing film and place the plate onto a plate shaker set to 50 rpm for 60 minutes at room temperature. [0447] 6) Decant plates and tap out residual liquid on a stack of paper towels. […] 7) Serially dilute test articles in 3-fold dilutions starting at 3000 ng/mL in pH 6.0 or pH 7.4 ELISA incubation buffer. […] 8) Add 100 μL/well of diluted test articles to the plates [0450] 9) Cover with sealing film and place the plates onto a plate shaker set to 50 rpm for 60 minutes at room temperature. [0451] 10) Decant plates and tap out residual liquid on a stack of paper towels. [0452] 11) Wash wells three times by dispensing 200 μL of pH 6.0 or pH 7.4 ELISA wash buffer to the wells and completely aspirate the contents. […] 12) Dilute the HRP secondary antibody at 1:2500 in pH 6.0 or pH 7.4 ELISA incubation buffer. [0454] […] 14) Cover with sealing film and place the plates onto a plate shaker set to 50 rpm for 60 minutes at room temperature. […] 15) Decant plates and tap out residual liquid on a stack of paper towels. […] 16) Wash wells three times by dispensing 200 μL of pH 6.0 or pH 7.4 ELISA wash buffer to the wells and completely aspirate the contents. [0458] 17) Dispense 50 μL per well of the TMB substrate solution into all wells of the plates.

cynoNectin4-mFc [4] = molecular target: T2, cynoNectin4-mFc; experiment: SPR, cynoNectin4-mFc immobilized, pH 6.5
Procedure: as §1, §2, §3

cynoNectin4 antigen = molecular target: T4, cynoNectin4 antigen (cynomolgus (cyno), UniProt A0A2K5WES1 32-349); experiment: ELISA, coated antigen, PSB pH 6.0
T4 construct: construct not described; also called cynomolgus (cyno) Nectin-4
T4 sequence: T1 sequence (looked up) with V39A, I230V
Procedure: as §4

Binder	Kd (huNectin4-His) [nM]	Kd (cynoNectin4-mFc [1]) [nM]	Kd (cynoNectin4-mFc [2]) [nM]	EC50 [3] [µg/mL]	Kd (cynoNectin4-mFc [4]) [nM]	EC50 (cynoNectin4 antigen) [µg/mL]	koff (huNectin4-His) [s⁻¹]	kon (huNectin4-His) [M⁻¹ s⁻¹]	koff (cynoNectin4-mFc [1]) [s⁻¹]	kon (cynoNectin4-mFc [1]) [M⁻¹ s⁻¹]	koff (cynoNectin4-mFc [2]) [s⁻¹]	kon (cynoNectin4-mFc [2]) [M⁻¹ s⁻¹]	koff (cynoNectin4-mFc [4]) [s⁻¹]	kon (cynoNectin4-mFc [4]) [M⁻¹ s⁻¹]
B1	0.102	0.244	0.311	0.0216	0.209	0.0146								
B2	0.785	3.25	1.85		1.88		0.000474	605000	0.000781	240000	0.00142	769000	0.000859	457000
B3	0.641	1.85	1.15	0.0533	1.6	0.0239	0.000483	754000	0.000651	352000	0.00113	983000	0.000876	549000
B4				0.0575		0.0395								
B5	0.00487	0.126	0.207	0.0368	0.0534	0.0261	9.92e-06	2.04e+06	8.26e-05	655000	0.000579	2.8e+06	8.99e-05	1.68e+06
B6	0.0282	2.37	0.187	0.0669	0.163	0.0384	5.94e-05	2.11e+06	0.000175	73900	0.000273	1.46e+06	0.00026	1.6e+06
